Laboratory results taken from patent US20040048314A1, “Novel physiologically active peptide and use thereof” (priority 2001, published 2004).

Key:
[1] = molecular target: human type I5E receptor protein (human) (UniProt Q8NFJ6); assay: cell-based or functional assay; conditions: scale: times lower level than human type Bv8 peptide
MAP kinase = conditions: cited from earlier work
guinea pig ileum = assay: Experiment on contraction using specimen removed from guinea pig ileum; conditions: for EC50: guinea pig ileum specimen, contraction induced by 1 μM acetylcholine taken as 100%, accumulative administration, read-out: EC50 of contraction response calculated from the dose-response curve
Protocol: Guinea pigs (std: Hartley, 7-8 weeks old, male, weighing about 450 g) weres bled to death by cutting the carotid artery and laparotomized to remove the ileum. The ileum was placed on a glass Petri dish charged with Tyrode solution (composition: 138 mM NaCl, 2.7 mM KCl, 1.8 mM CaCl2, 0.5 mM MgCl2, 1.1 mM NaH2PO4, 11.9 mM NaHCO3 and 5.6 mM glucose), which was bubbled with 95% O2-5% CO2 gas. After connective tissues or fat pieces adhered to the ileum were removed with scissors for surgery and tweezers, the ileum was cut into a size of about 1.5 cm long, which was used as specimen. The specimen was suspended in an organ bath (20 ml) filled with the Tyrode solution maintained at 37° C. and a load of 0.5 g was applied over 30 minutes or longer to stabilize the specimen. Contraction response of the ileum specimen was measured using AMPLIFIER CASE 7747 of NEC Sanei. After determination of the maximum contraction by administration of 1 μM acetylcholine, purified human type Bv8 peptide obtained by the method of REFERENCE EXAMPLE 1 with a modification or snake venom MIT1 was accumulatively administered to assay the contraction response. For dilution of human type Bv8 and MIT1, physiological saline containing 0.05% bovine serum albumin was employed.
The contraction response induced by human type Bv8 and MIT1 was shown by percentage, taking the contraction induced by 1 μM acetylcholine as 100%.

PI-3 kinase = conditions: cited from earlier work
ZAQ receptor = molecular target: T1, ZAQ receptor (Homo sapiens, UniProt Q8TCW9); assay: Assay for the ZAQ receptor activating activity (intracellular Ca ion level increasing activity using FLIPR); assay type: cell-based
T1 construct: expressed in transfected cells; host or cells: CHO/dhfr- cells, clone ZAQC-B1 (plasmid pAK-ZAQC)
Protocol: The ZAQC-B1 obtained in (2-1) above and the 15E-4 cells obtained in (2-2) above were suspended in a medium (10% d FBS-DMEM), respectively, in 15×10^4 cells/ml and an aliquot of 200 μl was inoculated on a 96-well plate for FLIPR (Black plate clear bottom, Coster, Inc.) using a dispenser (3.0×10^4 cells/200 μl/well). After culturing overnight in a 5% CO2 incubator at 37° C., it was provided for use (hereinafter which was made a cell plate). Twenty milliliters of H/HBSS (9.8 g of Nissui Hanks 2 (Nissui Seiyaku Co., Ltd.), 0.35 g of sodium hydrogencarbonate and 4.77 g of HEPES; the pH was adjusted to 7.4 with 6 M sodium hydroxide solution followed by filter sterilization), 200 μl of 250 mM Probenecid and 200 μl of fetal bovine serum (FBS) were mixed. Also, 2 vials (50 μg) of Fluo 3-AM (Dojin Kagaku Kenkyusho) were dissolved in 40 μl of dimethylsulfoxide and 40 μl of 20% Pluronic acid (Molecular Probes Co., Ltd.). The solution was added to H/HBSS-Probenecid-FBS described above. After thoroughly mixing them, an aliquot of 100 μl was added to the medium-removed cell plate using an 8-channel pipette, followed by incubation in a 5% CO2 incubator at 37° C. for an hour (dye loading). […] By assaying a change in fluorescence intensity with passage of time, the intracellular Ca ion level increasing activity was measured. […]

I5E receptor = molecular target: T2, I5E receptor (Homo sapiens, UniProt Q8NFJ6); assay: Assay for the I5E receptor activating activity (intracellular Ca ion level increasing activity using FLIPR); assay type: cell-based; conditions: I5E receptor expression CHO cells
T2 construct: expressed in transfected cells; host or cells: CHO/dhfr- cells, clone No. 4 (I5E-4 cells), vector pAKKO1.11
Text: Human I5E receptor cDNA (SEQ ID NO: 6) was cloned by PCR publicly known and incorporated into pAKKO1.11 expression vector. The expression vector was transfected to CHO/dhfr^− cells (American Type Culture Collection) by the method described in (2-1). About 20 colonies of the transfected CHO cells, which grew in 8 to 10 days after the initiation of culture, were selected. The selected cells were inoculated on a 96-well plate in 3×10^4 cells/well, and the reactivity on snake venom MIT1 (SEQ ID NO: 21) was examined by the test method described in (2-3) described hereinafter. No. 4 clone of the 15E-expressing CHO cells showing a good reactivity was selected (hereinafter abbreviated as 15E-4 cells).
The ZAQC-B1 obtained in (2-1) above and the 15E-4 cells obtained in (2-2) above were suspended in a medium (10% d FBS-DMEM), respectively, in 15×10^4 cells/ml and an aliquot of 200 μl was inoculated on a 96-well plate for FLIPR (Black plate clear bottom, Coster, Inc.) using a dispenser (3.0×10^4 cells/200 μl/well). After culturing overnight in a 5% CO2 incubator at 37° C., it was provided for use (hereinafter which was made a cell plate). […] By assaying a change in fluorescence intensity with passage of time, the intracellular Ca ion level increasing activity was measured. […]

[2] = tested on: ileum, distal colon, proximal colon; conditions: cited from earlier work

T2 sequence (Q8NFJ6 whole entry): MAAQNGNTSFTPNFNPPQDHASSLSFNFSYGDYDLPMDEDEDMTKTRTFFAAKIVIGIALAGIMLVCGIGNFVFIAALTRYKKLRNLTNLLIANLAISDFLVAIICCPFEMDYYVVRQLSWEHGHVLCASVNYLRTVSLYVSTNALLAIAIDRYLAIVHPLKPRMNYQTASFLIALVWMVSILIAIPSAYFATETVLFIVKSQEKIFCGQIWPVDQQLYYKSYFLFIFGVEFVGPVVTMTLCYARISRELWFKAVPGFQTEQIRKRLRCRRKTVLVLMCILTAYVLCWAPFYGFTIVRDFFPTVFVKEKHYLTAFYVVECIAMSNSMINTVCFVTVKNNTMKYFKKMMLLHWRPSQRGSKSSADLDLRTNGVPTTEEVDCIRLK
T1 sequence (Q8TCW9 whole entry): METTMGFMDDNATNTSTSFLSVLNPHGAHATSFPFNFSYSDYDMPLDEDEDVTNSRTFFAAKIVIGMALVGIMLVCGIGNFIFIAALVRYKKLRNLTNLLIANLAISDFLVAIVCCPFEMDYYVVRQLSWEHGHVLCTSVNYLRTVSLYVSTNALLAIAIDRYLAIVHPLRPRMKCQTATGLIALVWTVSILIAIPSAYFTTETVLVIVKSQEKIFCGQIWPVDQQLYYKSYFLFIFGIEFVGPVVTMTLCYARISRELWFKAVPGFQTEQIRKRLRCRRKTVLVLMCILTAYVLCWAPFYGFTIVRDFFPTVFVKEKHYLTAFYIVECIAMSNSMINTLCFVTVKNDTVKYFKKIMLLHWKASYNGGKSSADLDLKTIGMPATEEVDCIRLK
human type I5E receptor protein (human), sequence (Q8NFJ6 whole entry): as the sequence (Q8NFJ6 whole entry) above

## snake venom Mamba Intestinal Toxin 1 (from UniProt P25687 1-80) (ligand)
[1]
  I5E receptor activating activity (intracellular calcium level, FLIPR): 10

B1: human type Bv8: Human type Bv8 mature peptide (81 amino acid residues, SEQ ID NO: 19) produced in Escherichia coli, … EXAMPLE 1 (protein)
chain: AVITGACDKDSQCGGGMCCAVSIWVKSIRICTPMGKLGDSCHPLTRKVPFFGRRMHHTCPCLPGLACLRTSFNRFICLAQ
MAP kinase
  MAP kinase activation: activates
Guinea pig ileum; as described in EXAMPLES
  intestinal tract contractile activity: has an intestinal tract contractile activity
Guinea pig ileum
  EC50: 0.57 nM
PI-3 kinase
  PI-3 kinase activation: activates
ZAQ receptor; method of EXAMPLE 2 (2-3), receptor cell line not specified
  intracellular Ca ion level increasing activity using FLIPR, compared with CHO cell-derived recombinant preparation: equivalent to that of the CHO cell-derived recombinant preparation

B2: human type Bv8 peptide: Human type Bv8 purified from CHO cell culture supernatant (EXAMPLE 3); C-terminal Lys-deficient mature peptide, SEQ ID NO: 22 (protein)
chain: AVITGACDKDSQCGGGMCCAVSIWVKSIRICTPMGKLGDSCHPLTRKVPFFGRRMHHTCPCLPGLACLRTSFNRFICLAQ
modifications: Human
ZAQ receptor; ZAQ receptor expression CHO cells, FLIPR, FIG. 9
  ZAQ receptor activating activity (intracellular calcium level): induced the intracellular calcium level concentration-dependently
I5E receptor; FLIPR, FIG. 10
  I5E receptor activating activity (intracellular calcium level): induced the intracellular calcium level concentration-dependently

B3: MIT1 (protein)
chain: AVITGACERDLQCGKGTCCAVSLWIKSVRVCTPVGTSGEDCHPASHKIPFSGQRMHHTCPCAPNLACVQTSPKKFKCLSK
Guinea pig ileum
  EC50: 0.4 nM
I5E receptor; relative to human type Bv8 peptide
  level from which I5E receptor activating activity is exhibited, lower than that of human type Bv8 peptide: about 10 times
[2]; compared with potassium chloride
  degree of contraction/relaxation: as potent as comparable to 40 mM potassium chloride
[2]; ileum, distal colon, proximal colon
  contraction or relaxation of intestinal tract: induced contraction in the ileum or distal colon, or relaxation in the proximal colon
